Experimental data taken from the supplement of paper PMC9112550, “Optimization of the antimicrobial peptide Bac7 by deep mutational scanning” (BMC Biology, 2022).

tested on: Escherichia coli TOP10; test: shrunken log2 fold change of peptide-encoding DNA abundance (4.5 h post-induction vs induction); higher = less antimicrobial activity (less host growth inhibition); settings: time post-induction: 4.5 h; library: site-saturation at positions 5, 18, 19, 20
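Also: peptides expressed intracellularly from a pBAD plasmid library in pooled LB shake-flask culture, induced with 0.3% L-arabinose, DNA abundance read by NGS, three biological replicates, DESeq2 with apeglm shrinkage.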

In order of rising “shrunken log2 fold change” value:
1. RRIRCRPPRLPRPRPRPFDIPRP  -1.4
2. RRIRCRPPRLPRPRPRPDNMPRP  -1.31
3. RRIRCRPPRLPRPRPRPCSHPRP  -1.29
4. RRIRCRPPRLPRPRPRPFQYPRP  -1.21
5. RRIRCRPPRLPRPRPRPFHVPRP  -0.893
6. RRIRCRPPRLPRPRPRPFVHPRP  -0.891
7. RRIRCRPPRLPRPRPRPHCTPRP  -0.88
8. RRIRCRPPRLPRPRPRPDTGPRP  -0.879
9. RRIRCRPPRLPRPRPRPDNKPRP  -0.795
10. RRIRCRPPRLPRPRPRPDDKPRP  -0.739
11. RRIRCRPPRLPRPRPRPCYEPRP  -0.663
12. RRIRCRPPRLPRPRPRPHFFPRP  -0.633
13. RRIRCRPPRLPRPRPRPFTYPRP  -0.631
14. RRIRCRPPRLPRPRPRPAYNPRP  -0.619
15. RRIRCRPPRLPRPRPRPGIMPRP  -0.594
16. RRIRCRPPRLPRPRPRPCLNPRP  -0.589
17. RRIRCRPPRLPRPRPRPGYLPRP  -0.561
18. RRIRCRPPRLPRPRPRPCIIPRP  -0.538
19. RRIRCRPPRLPRPRPRPHCMPRP  -0.517
20. RRIRCRPPRLPRPRPRPGYSPRP  -0.483
21. RRIRCRPPRLPRPRPRPHCIPRP  -0.468
22. RRIRCRPPRLPRPRPRPCLPPRP  -0.439
23. RRIRCRPPRLPRPRPRPARYPRP  -0.438
24. RRIRCRPPRLPRPRPRPENHPRP  -0.415
25. RRIRCRPPRLPRPRPRPCNQPRP  -0.412
26. RRIRCRPPRLPRPRPRPDFIPRP  -0.383
27. RRIRCRPPRLPRPRPRPHKGPRP  -0.363
28. RRIRCRPPRLPRPRPRPCKEPRP  -0.35
29. RRIRCRPPRLPRPRPRPCHPPRP  -0.348
30. RRIRCRPPRLPRPRPRPATFPRP  -0.331
31. RRIRCRPPRLPRPRPRPFWSPRP  -0.331
32. RRIRCRPPRLPRPRPRPGDVPRP  -0.319
33. RRIRCRPPRLPRPRPRPDMNPRP  -0.312
34. RRIRCRPPRLPRPRPRPENTPRP  -0.297
35. RRIRCRPPRLPRPRPRPFLFPRP  -0.291
36. RRIRCRPPRLPRPRPRPHACPRP  -0.281
37. RRIRCRPPRLPRPRPRPHEFPRP  -0.267
38. RRIRCRPPRLPRPRPRPAMYPRP  -0.265
39. RRIRCRPPRLPRPRPRPDLEPRP  -0.26
40. RRIRCRPPRLPRPRPRPCSQPRP  -0.256
41. RRIRCRPPRLPRPRPRPCYRPRP  -0.256
42. RRIRCRPPRLPRPRPRPDLHPRP  -0.252
43. RRIRCRPPRLPRPRPRPCSTPRP  -0.245
44. RRIRCRPPRLPRPRPRPFWFPRP  -0.245
45. RRIRCRPPRLPRPRPRPCSPPRP  -0.241
46. RRIRCRPPRLPRPRPRPGSMPRP  -0.24
47. RRIRCRPPRLPRPRPRPHGNPRP  -0.233
48. RRIRCRPPRLPRPRPRPDNEPRP  -0.229
49. RRIRCRPPRLPRPRPRPFKRPRP  -0.219
50. RRIRCRPPRLPRPRPRPCCHPRP  -0.204
51. RRIRCRPPRLPRPRPRPCYQPRP  -0.182
52. RRIRCRPPRLPRPRPRPCRFPRP  -0.178
53. RRIRCRPPRLPRPRPRPDHQPRP  -0.172
54. RRIRCRPPRLPRPRPRPFMWPRP  -0.165
55. RRIRCRPPRLPRPRPRPCVRPRP  -0.163
56. RRIRCRPPRLPRPRPRPCRNPRP  -0.154
57. RRIRCRPPRLPRPRPRPDVFPRP  -0.151
58. RRIRCRPPRLPRPRPRPEWIPRP  -0.151
59. RRIRCRPPRLPRPRPRPEDTPRP  -0.146
60. RRIRCRPPRLPRPRPRPDPDPRP  -0.141
61. RRIRCRPPRLPRPRPRPCVCPRP  -0.128
62. RRIRCRPPRLPRPRPRPAVFPRP  -0.127
63. RRIRCRPPRLPRPRPRPAQKPRP  -0.118
64. RRIRCRPPRLPRPRPRPDDLPRP  -0.118
65. RRIRCRPPRLPRPRPRPEDKPRP  -0.114
66. RRIRCRPPRLPRPRPRPGLKPRP  -0.113
67. RRIRCRPPRLPRPRPRPGQCPRP  -0.11
68. RRIRCRPPRLPRPRPRPDLIPRP  -0.109
69. RRIRCRPPRLPRPRPRPECLPRP  -0.109
70. RRIRCRPPRLPRPRPRPEYEPRP  -0.108
71. RRIRCRPPRLPRPRPRPGVHPRP  -0.108
72. RRIRCRPPRLPRPRPRPGIRPRP  -0.107
73. RRIRCRPPRLPRPRPRPCVNPRP  -0.106
74. RRIRCRPPRLPRPRPRPFQEPRP  -0.101
75. RRIRCRPPRLPRPRPRPCYIPRP  -0.0945
76. RRIRCRPPRLPRPRPRPAYKPRP  -0.093
77. RRIRCRPPRLPRPRPRPFWHPRP  -0.0854
78. RRIRCRPPRLPRPRPRPCQFPRP  -0.0777
79. RRIRCRPPRLPRPRPRPALYPRP  -0.0755
80. RRIRCRPPRLPRPRPRPGTFPRP  -0.0668
81. RRIRCRPPRLPRPRPRPCPKPRP  -0.0654
82. RRIRCRPPRLPRPRPRPGIEPRP  -0.0627
83. RRIRCRPPRLPRPRPRPEEHPRP  -0.0578
84. RRIRCRPPRLPRPRPRPCMHPRP  -0.0569
85. RRIRCRPPRLPRPRPRPEKEPRP  -0.0494
86. RRIRCRPPRLPRPRPRPENSPRP  -0.0484
87. RRIRCRPPRLPRPRPRPDKDPRP  -0.0474
88. RRIRCRPPRLPRPRPRPHGDPRP  -0.0473
89. RRIRCRPPRLPRPRPRPHENPRP  -0.0452
90. RRIRCRPPRLPRPRPRPDGYPRP  -0.0404
91. RRIRCRPPRLPRPRPRPEDHPRP  -0.0393
92. RRIRCRPPRLPRPRPRPDLRPRP  -0.035
93. RRIRCRPPRLPRPRPRPDITPRP  -0.022
94. RRIRCRPPRLPRPRPRPFEDPRP  -0.019
95. RRIRCRPPRLPRPRPRPGQAPRP  -0.0147
96. RRIRCRPPRLPRPRPRPFCSPRP  -0.008
97. RRIRCRPPRLPRPRPRPGIIPRP  -0.00738
98. RRIRCRPPRLPRPRPRPGYTPRP  0.00337
99. RRIRCRPPRLPRPRPRPDGRPRP  0.00474
100. RRIRCRPPRLPRPRPRPFCGPRP  0.011
101. RRIRCRPPRLPRPRPRPATSPRP  0.0157
102. RRIRCRPPRLPRPRPRPCYKPRP  0.0187
103. RRIRCRPPRLPRPRPRPHHAPRP  0.0208
104. RRIRCRPPRLPRPRPRPGWTPRP  0.0289
105. RRIRCRPPRLPRPRPRPGHVPRP  0.0304
106. RRIRCRPPRLPRPRPRPEKSPRP  0.0445
107. RRIRCRPPRLPRPRPRPFDAPRP  0.0524
108. RRIRCRPPRLPRPRPRPGQSPRP  0.0538
109. RRIRCRPPRLPRPRPRPGWWPRP  0.054
110. RRIRCRPPRLPRPRPRPDRHPRP  0.0552
111. RRIRCRPPRLPRPRPRPGTMPRP  0.0719
112. RRIRCRPPRLPRPRPRPEDEPRP  0.076
113. RRIRCRPPRLPRPRPRPFFGPRP  0.0829
114. RRIRCRPPRLPRPRPRPAVYPRP  0.0903
115. RRIRCRPPRLPRPRPRPFAWPRP  0.0983
116. RRIRCRPPRLPRPRPRPEPKPRP  0.104
117. RRIRCRPPRLPRPRPRPFPVPRP  0.11
118. RRIRCRPPRLPRPRPRPDGVPRP  0.125
119. RRIRCRPPRLPRPRPRPAVAPRP  0.137
120. RRIRCRPPRLPRPRPRPGRMPRP  0.141
121. RRIRCRPPRLPRPRPRPHADPRP  0.145
122. RRIRCRPPRLPRPRPRPDRCPRP  0.16
123. RRIRCRPPRLPRPRPRPERIPRP  0.164
124. RRIRCRPPRLPRPRPRPGQIPRP  0.165
125. RRIRCRPPRLPRPRPRPGGLPRP  0.17
126. RRIRCRPPRLPRPRPRPDKWPRP  0.184
127. RRIRCRPPRLPRPRPRPAMVPRP  0.204
128. RRIRCRPPRLPRPRPRPGMGPRP  0.223
129. RRIRCRPPRLPRPRPRPEVRPRP  0.24
130. RRIRCRPPRLPRPRPRPFGWPRP  0.24
131. RRIRCRPPRLPRPRPRPEQNPRP  0.268
132. RRIRCRPPRLPRPRPRPALVPRP  0.281
133. RRIRCRPPRLPRPRPRPGTAPRP  0.292
134. RRIRCRPPRLPRPRPRPGWRPRP  0.331
135. RRIRCRPPRLPRPRPRPEAHPRP  0.38
136. RRIRCRPPRLPRPRPRPEWRPRP  0.391
137. RRIRCRPPRLPRPRPRPGWGPRP  0.42
138. RRIRCRPPRLPRPRPRPETVPRP  0.448
139. RRIRCRPPRLPRPRPRPGMRPRP  0.532
140. RRIRCRPPRLPRPRPRPGPAPRP  0.543
141. RRIRCRPPRLPRPRPRPGCGPRP  0.545
142. RRIRCRPPRLPRPRPRPAPDPRP  0.576
143. RRIRCRPPRLPRPRPRPAQRPRP  0.613
144. RRIRCRPPRLPRPRPRPALWPRP  0.621
145. RRIRCRPPRLPRPRPRPCAIPRP  0.651
146. RRIRCRPPRLPRPRPRPERAPRP  0.675
147. RRIRCRPPRLPRPRPRPAWWPRP  0.902
148. RRIRCRPPRLPRPRPRPEAAPRP  1.11
149. RRIRCRPPRLPRPRPRPARDPRP  1.84
150. RRIRCRPPRLPRPRPRPEGVPRP  2.48
